Measured values: the RNAGym collection of RNA variant scans (doi:10.1073/pnas.2313332121)
Variants at the floor of the assay were thinned out.

B1: TPR 5TU (parent)
chain: GGAUCUUCUCGAUCUAACAAAAAAGACAAAUCUGCCACAAAGCUUGAGAGCAUCUUCGGAUGCAGAGGCGGCAGCCUUCGGUGGCGCGAUAGCGCCAACGUUCUCAACUAUGACACGCAAAACGCGUGCUCCGUUGAAUGGAGUUUAUCAUG

Variants of: B1
Assay: polymerase ribozyme fitness, log enrichment relative to wild type (log ratio); higher = more active; in vitro selection for triplet polymerase activity
In short: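 PCR was used to build mutant libraries for each subunit of a heterodimeric triplet polymerase ribozyme, which were then transcribed. A single in vitro selection round, in triplicate, used a frozen incubation at −7 °C and recovered extended constructs by gel excision, streptavidin beads and RT-PCR. Fitness is the logarithm of genotype enrichment relative to wild-type enrichment, averaged over replicates with inverse-variance weights. The logarithm is base 2, and after Illumina sequencing only genotypes with ≥10 input reads and ≥1 read per output were kept.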

| Variant | polymerase ribozyme fitness (log ratio) |
| --- | --- |
| GGAUCUUCUCGAUCUAACAUAAAAGACAAAUCUCCCACAAAGCUUGAGAGCAUCUUCGGAUGCAGAGGCGGCAGCCUUCGGUGGCGCGAUAGCGCGAACGUUCUCAACUAUGACACGCAAAACGCGUGCUCCGUUGAAUGGAGUUUAUCAUG [A20U G34C C96G] | ≤ -4.2 |
| GGAUCUUCUCGAUCUAACAUAAAAGACAAAUCUGCCACAAAGCUUGAGAGCAUCUUCGGAUGCAGAGGCGGCAGCCUUCGGUGUCGCGAUAGCGCCAACGUUCUCAAUUAUGACACGCAAAACGCGUGCUCCGUUGAAUGGAGUUUAUCAUG [A20U G84U C108U] | ≤ -4.2 |
| GGAUCUUCUCGAUCUAACAUAAAAGACAAAUCUGCCACAAAGCUUGAGAGCAUCUUCGGAUCUAGAGGCGGCAGCCUUCGGUGGCGCGAUAGCGUCAACGUUCUCAACUAUGACACGCAAAGCGCGUGCUCCGUUGAAUGGAAUUUAUCAUG [A20U G62C C63U C95U A122G G143A] | -4.12 |
| GGAUCUUCUCGAUCUAACAUAAAAGACAAAUCUGCCACAAAGCUUGAGAGCAUCUUCGGAUGCAGAGGCGGCAGCCUUCGGUGGAGCGAUAGCCCCAACGUUCUCAACUAUGACACGCAACACGCGUGCUCCGUUGAAUGGAGUUUAUCAUG [A20U C85A G94C A121C] | -0.745 |
| GGAUCUUCUCGAUCUAACAUAAAAGACAAAUCUGCCACAAAGCUUGAGAGCAUGUUCGGAUGCAGAGGCCGCAGCCUUGGGUGGCGCGAUAUCGCCAACGUUCUCAUCUAUGACACGCAAAACGCGUGCUCCGUUGAAUGGAGUUUAUCAUG [A20U C54G G70C C79G G92U A107U] | ≤ -4.2 |
| GGAUCUUCUCGAUCUAACAUAAAAGACAAAUCUGCCACAAAGCUUGAGAUCAUCUUCGGAUGCAGAGGCGGCAGCAUUCGGUGGCGCGAUACCGCCAACGUUCUCAACUGUGACACGGAAAACGCGUGCUCCGUUGUAUGGAGUUUAUCAUG [A20U G50U C76A G92C A110G C118G A137U] | ≤ -4.2 |
| GGAUCUUCUCGAUCUAACAUAAAAGACAAAUCUGGCACAAAGCUUGAGCGCAUCUUCGGAUGCAGAGGCGGCAGCCUUCGGUGGCGCGAUAGCACCAACCUUCUCAACUAUGACACGCUGAACGCGUGCUCCGCUGAAUGGAGUUUAUCAUG [A20U C35G A49C G94A G100C A119U A120G U134C] | ≤ -4.2 |
| GGAUCUUCUCGAUCUAACAUAAAAGACAAAUCUGCCACAAAGCUUGAGAGCAUCUUCGGAUGCAGAGGCGGCAGCCUUCGGUGGUGCGAUAGCGCCAACGUUCUCAACUAUGACACGCAAAACGCGUGCUCCGUUGAAUGGAGUUUAUCAUG [A20U C85U] | -1.3 |
| GGAUCUUCUCGAUCUAACAUAAAAGACAAAUCUGCCACAAAGCUUGAGAGCAUCUUCGGAUGCAGAGGCGGCGGCCUUCGGUGGAGCGAUAGAGCCAACGUUCUCAACUAUGACACGCAAAACGCGUGCUCCGUUGAAUGCAGUUUAUCAUG [A20U A73G C85A C93A G141C] | ≤ -4.2 |
| GGAUCUUCUCGAUCUAACAUAAAAGACAAAUCUGCCACAAAGCUUGAGAGCAUCUUCGGAUGCAGAGGCGGCAGCCUUCGGUGGCGCGAUAGUGCCAACGUUCUCAACUAUGACACGCAAAACGCGUGCUCCGUUGAAUGGAGUUUAUCAUG [A20U C93U] | -1.76 |
| GGAUCUUCUCGAUCUAACAUAAAAGACAAAUCUGCCACAAAGCUUGAGAGCAUCUUCGGAUGCAGAGGCGGCAGCCUUCGGUGGCGCGAUUGCGCCAACGUUCUCAACUAUGACUCGCAAAACGCGUGCUCCGUUGAAUGGAGUUUAUCAUG [A20U A91U A115U] | -4.17 |
| GGAUCUUCUCGAUCUAACAUAAAAGACAAAUCUGCCACAAAGCUUGAGAGCAUCUUCAGAUGCAGAGGCGGCAGCCUUCGAUGGCGCGAUAGCGCCAACGUUCUCAACUAUGACACGCAAAACGCGUGCUCCGUUGAAUGGAGUUUAUCAUG [A20U G58A G81A] | -0.836 |
| GGAUCUUCUCGAUCUAACAUAAAAGACAAAUCUGCCACAAAGCUUGAGAGCGUCUUCGGAUGCAGAGGCGGCAGCCUUCGGUGGCGCGAUAGCGCCAACGUUCUCAACUAUGACACGCAAAACGCGUGCUCCGUUGAAUGGAGUUUAUCAUG [A20U A52G] | -2.02 |
| GGAUCUUCUCGAUCUAACAUAAAAGACAAAUCUGUCACAAAGCUUGAGAGCAUCUUCGGAUGCAGAGGCGGCAGCCUUCGGUGGCGCGAUAGCGCCAACGUUCUCAACUAUGACACGCAAAACGCGUGCUCCGUUGAAUGGAGCUUAUCAUG [A20U C35U U144C] | -2.73 |
| GGAUCUUCUCGAUCUAACAUAAAAGACAAAUCUGCCACAAAGCUUGAGAGCAUCUUCGGAUGCAGAGGCGGCAGCCUUCGGUGUCGCGAUAGCGCCAGCGUUCUCAACUAUGACACGCAAAACGCGUGCUCCGUUGAAUGGAGUUUAUCAUG [A20U G84U A98G] | -4.1 |
| GGAUCUUCUCGAUCUAACAUAAAAGACAAAUCUGCCACAAAGAUUGAGAGCAUCUUCGGAUGCAGAGGUGGCAGCCUUCGGUGGCGCGAUAGCGCCAACGUUCUCAACUAUGACACGCAAAACGCGUGCUCCGUUGAGUGGAGUUUAUCAUG [A20U C43A C69U A138G] | ≤ -4.2 |
| GGAUCUUCUCGAUCUAACAUAAAAGACAAAUCUGCCACAAAGCUUGAGAGCAUCUUCGGAUGCAGAGGCGGCAGCCUUCGGUGGCGCCAUAGCGCCAACGUUCUCAACUAUGACACGCAAAACGCGUGCUCCGUUGAAUGGAGUUUAUCAUG [A20U G88C] | -3.85 |
| GGAUCUUCUCGAUCUAACAUAAAAGACAAAUCUGCCACAAAGCUUGAGAGCAUCUUCGGAUCCAGAGGCGACAGCCUUCGGUGGCGCGAUAGCGCCAACGUUCUCAACUAUGACACUCAAAACGCGUGCUCCGUGGAAUGGAGUUUAUCAUG [A20U G62C G71A G117U U135G] | ≤ -4.2 |
| GGAUCUUCUCGAUCUAACAUAAAAGACAAAUCUGCCACAAAGCUUGAGAGCCUCUUCGGAUGCAGAGGCGGCAGCCUUCGGUGGCGCGAUAGUGCCAACGUUCUCAACUAUGACACGCAAAACGCGUGCUCCGUUGAAUGGAGUUUAUCAUG [A20U A52C C93U] | -3.12 |
